B1: GST::hGDI1 (natural protein)
chain: MDEEYDVIVLGTGLTECILSGIMSVNGKKVLHMDRNPYYGGESSSITPLEELYKRFQLLEGPPESMGRGRDWNVDLIPKFLMANGQLVKMLLYTEVTRYLDFKVVEGSFVYKGGKIYKVPSTETEALASNLMGMFEKRRFRKFLVFVANFDENDPKTFEGVDPQTTSMRDVYRKFDLGQDVIDFTGHALALYRTDDYLDQPCLETVNRIKLYSESLARYGKSPYLYPLYGLGELPQGFARLSAIYGGTYMLNKPVDDIIMENGKVVGVKSEGEVARCKQLICDPSYIPDRVRKAGQVIRIICILSHPIKNTNDANSCQIIIPQNQVNRKSDIYVCMISYAHNVAAQGKYIAIASTTVETTDPEKEVEPALELLEPIDQKFVAISDLYEPIDDGCESQVFCSCSYDATTHFETTCNDIKDIYKRMAGTAFDFENMKRKQNDVFGEAEQ
B2: 6HIS::MYC::RAB1A::6HIS (natural protein)
chain: not shown

Columns and labels:
6HIS::MYC::PIAS1::6HIS = 6HIS::MYC::PIAS1::6HIS (human, UniProt O75925 1-651); assay: pull-down
GST::hGDI1 = biological target: B1; assay: pull-down

Sequence of 6HIS::MYC::PIAS1::6HIS (O75925 whole entry): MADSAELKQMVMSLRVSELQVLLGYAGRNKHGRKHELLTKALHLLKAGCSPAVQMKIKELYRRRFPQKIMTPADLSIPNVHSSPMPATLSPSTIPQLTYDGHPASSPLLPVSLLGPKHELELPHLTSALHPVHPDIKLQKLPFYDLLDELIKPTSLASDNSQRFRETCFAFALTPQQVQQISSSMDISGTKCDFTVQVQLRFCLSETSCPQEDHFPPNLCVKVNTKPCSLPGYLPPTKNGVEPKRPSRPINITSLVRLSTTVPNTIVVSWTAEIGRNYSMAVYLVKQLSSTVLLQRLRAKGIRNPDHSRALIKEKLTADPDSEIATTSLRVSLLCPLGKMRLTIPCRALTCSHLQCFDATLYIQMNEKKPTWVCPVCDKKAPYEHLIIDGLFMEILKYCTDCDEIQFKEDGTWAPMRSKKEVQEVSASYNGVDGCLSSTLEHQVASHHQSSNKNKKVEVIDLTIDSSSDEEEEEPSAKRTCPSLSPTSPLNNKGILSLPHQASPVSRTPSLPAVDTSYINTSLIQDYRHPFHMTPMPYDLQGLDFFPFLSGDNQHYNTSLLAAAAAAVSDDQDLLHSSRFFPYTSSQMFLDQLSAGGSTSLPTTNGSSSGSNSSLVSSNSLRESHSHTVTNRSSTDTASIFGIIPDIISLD

Row | Binder | binding result (6HIS::MYC::PIAS1::6HIS) | binding result (GST::hGDI1)
1 | B1 | binds | 
2 | B2 |  | binds
